Measurements as given in the supplement of paper PMC9112550, “Optimization of the antimicrobial peptide Bac7 by deep mutational scanning” (BMC Biology, 2022).

System: Escherichia coli TOP10
Test: shrunken log2 fold change of peptide-encoding DNA abundance (4.5 h post-induction vs induction); higher = less antimicrobial activity (less host growth inhibition)
Conditions: time post-induction: 4.5 h; library: site-saturation at positions 5, 18, 19, 20
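Also: peptides expressed intracellularly from a pBAD plasmid library in pooled LB shake-flask culture, induced with 0.3% L-arabinose, DNA abundance read by NGS, three biological replicates, DESeq2 with apeglm shrinkage.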

Row | Sequence | shrunken log2 fold change
1 | RRIRGRPPRLPRPRPRPVDFPRP | 0.408
2 | RRIRGRPPRLPRPRPRPVDQPRP | 0.126
3 | RRIRGRPPRLPRPRPRPVDTPRP | 0.678
4 | RRIRGRPPRLPRPRPRPVFMPRP | 0.0348
5 | RRIRGRPPRLPRPRPRPVFNPRP | 0.155
6 | RRIRGRPPRLPRPRPRPVFPPRP | 0.36
7 | RRIRGRPPRLPRPRPRPVHFPRP | 0.562
8 | RRIRGRPPRLPRPRPRPVHMPRP | -0.0938
9 | RRIRGRPPRLPRPRPRPVHVPRP | 0.0798
10 | RRIRGRPPRLPRPRPRPVILPRP | -0.33
11 | RRIRGRPPRLPRPRPRPVKFPRP | 0.326
12 | RRIRGRPPRLPRPRPRPVKGPRP | 0.276
13 | RRIRGRPPRLPRPRPRPVLNPRP | 0.469
14 | RRIRGRPPRLPRPRPRPVLTPRP | 0.834
15 | RRIRGRPPRLPRPRPRPVMGPRP | 0.289
16 | RRIRGRPPRLPRPRPRPVMKPRP | 0.729
17 | RRIRGRPPRLPRPRPRPVNQPRP | 0.35
18 | RRIRGRPPRLPRPRPRPVNRPRP | -0.0382
19 | RRIRGRPPRLPRPRPRPVPGPRP | 0.742
20 | RRIRGRPPRLPRPRPRPVPMPRP | 1.17
21 | RRIRGRPPRLPRPRPRPVQAPRP | 0.891
22 | RRIRGRPPRLPRPRPRPVQGPRP | 0.301

Row | Sequence | shrunken log2 fold change
23 | RRIRGRPPRLPRPRPRPVQPPRP | 0.95
24 | RRIRGRPPRLPRPRPRPVRGPRP | 0.866
25 | RRIRGRPPRLPRPRPRPVTAPRP | 0.74
26 | RRIRGRPPRLPRPRPRPVTRPRP | 0.383
27 | RRIRGRPPRLPRPRPRPVTYPRP | -0.13
28 | RRIRGRPPRLPRPRPRPVVGPRP | 0.735
29 | RRIRGRPPRLPRPRPRPVVHPRP | 0.254
30 | RRIRGRPPRLPRPRPRPVWGPRP | 1.08
31 | RRIRGRPPRLPRPRPRPVWWPRP | 0.997
32 | RRIRGRPPRLPRPRPRPVYAPRP | 0.0566
33 | RRIRGRPPRLPRPRPRPVYGPRP | 0.0598
34 | RRIRGRPPRLPRPRPRPVYTPRP | 0.00198
35 | RRIRGRPPRLPRPRPRPWAEPRP | 2.19
36 | RRIRGRPPRLPRPRPRPWAIPRP | 0.259
37 | RRIRGRPPRLPRPRPRPWAVPRP | -0.142
38 | RRIRGRPPRLPRPRPRPWCSPRP | -0.0965
39 | RRIRGRPPRLPRPRPRPWDHPRP | 0.0661
40 | RRIRGRPPRLPRPRPRPWEAPRP | -0.0319
41 | RRIRGRPPRLPRPRPRPWGVPRP | 0.287
42 | RRIRGRPPRLPRPRPRPWKTPRP | -0.0497
43 | RRIRGRPPRLPRPRPRPWLSPRP | -0.0504
44 | RRIRGRPPRLPRPRPRPWLYPRP | 0.285

Row | Sequence | shrunken log2 fold change
45 | RRIRGRPPRLPRPRPRPWMNPRP | 0.106
46 | RRIRGRPPRLPRPRPRPWQAPRP | 0.00236
47 | RRIRGRPPRLPRPRPRPWREPRP | 0.599
48 | RRIRGRPPRLPRPRPRPWRSPRP | 0.172
49 | RRIRGRPPRLPRPRPRPWSDPRP | 0.0554
50 | RRIRGRPPRLPRPRPRPWSMPRP | 0.0583
51 | RRIRGRPPRLPRPRPRPWSTPRP | 0.243
52 | RRIRGRPPRLPRPRPRPWSVPRP | -0.131
53 | RRIRGRPPRLPRPRPRPWTCPRP | -0.0593
54 | RRIRGRPPRLPRPRPRPWTNPRP | 0.0419
55 | RRIRGRPPRLPRPRPRPWYGPRP | -0.242
56 | RRIRGRPPRLPRPRPRPWYNPRP | -0.358
57 | RRIRGRPPRLPRPRPRPWYPPRP | -0.119
58 | RRIRGRPPRLPRPRPRPWYWPRP | 0.187
59 | RRIRGRPPRLPRPRPRPYAPPRP | 0.116
60 | RRIRGRPPRLPRPRPRPYAYPRP | -0.0803
61 | RRIRGRPPRLPRPRPRPYEDPRP | -0.017
62 | RRIRGRPPRLPRPRPRPYENPRP | -0.0711
63 | RRIRGRPPRLPRPRPRPYFTPRP | -0.123
64 | RRIRGRPPRLPRPRPRPYGEPRP | 0.398
65 | RRIRGRPPRLPRPRPRPYGKPRP | -0.124
66 | RRIRGRPPRLPRPRPRPYGRPRP | 0.047

Row | Sequence | shrunken log2 fold change
67 | RRIRGRPPRLPRPRPRPYHQPRP | -0.101
68 | RRIRGRPPRLPRPRPRPYHSPRP | -0.861
69 | RRIRGRPPRLPRPRPRPYIMPRP | -0.746
70 | RRIRGRPPRLPRPRPRPYKCPRP | -0.00955
71 | RRIRGRPPRLPRPRPRPYLFPRP | -0.0066
72 | RRIRGRPPRLPRPRPRPYMRPRP | 0.0456
73 | RRIRGRPPRLPRPRPRPYMYPRP | -0.251
74 | RRIRGRPPRLPRPRPRPYNHPRP | -0.983
75 | RRIRGRPPRLPRPRPRPYSIPRP | 0.273
76 | RRIRGRPPRLPRPRPRPYSTPRP | 0.037
77 | RRIRGRPPRLPRPRPRPYSYPRP | -0.0264
78 | RRIRGRPPRLPRPRPRPYTDPRP | -0.417
79 | RRIRGRPPRLPRPRPRPYTIPRP | 0.187
80 | RRIRGRPPRLPRPRPRPYVRPRP | -0.51
81 | RRIRGRPPRLPRPRPRPYWIPRP | -0.311
82 | RRIRGRPPRLPRPRPRPYWRPRP | -0.104
83 | RRIRGRPPRLPRPRPRPYYMPRP | -0.238
84 | RRIRGRPPRLPRPRPRPYYPPRP | -0.791
85 | RRIRHRPPRLPRPRPRPAAGPRP | 0.323
86 | RRIRHRPPRLPRPRPRPAAHPRP | 0.274
87 | RRIRHRPPRLPRPRPRPAAMPRP | 0.191
88 | RRIRHRPPRLPRPRPRPACYPRP | -0.226

Row | Sequence | shrunken log2 fold change
89 | RRIRHRPPRLPRPRPRPAEVPRP | -0.0107
90 | RRIRHRPPRLPRPRPRPAGDPRP | 0.309
91 | RRIRHRPPRLPRPRPRPAGKPRP | 0.0288
92 | RRIRHRPPRLPRPRPRPAKAPRP | 0.0344
93 | RRIRHRPPRLPRPRPRPALIPRP | 0.0852
94 | RRIRHRPPRLPRPRPRPALNPRP | 0.0444
95 | RRIRHRPPRLPRPRPRPAMPPRP | -0.0758
96 | RRIRHRPPRLPRPRPRPANCPRP | -0.246
97 | RRIRHRPPRLPRPRPRPANYPRP | -0.00316
98 | RRIRHRPPRLPRPRPRPAPLPRP | 0.16
99 | RRIRHRPPRLPRPRPRPARGPRP | 0.319
100 | RRIRHRPPRLPRPRPRPARPPRP | 0.502
101 | RRIRHRPPRLPRPRPRPARSPRP | 0.0188
102 | RRIRHRPPRLPRPRPRPAVCPRP | 0.0561
103 | RRIRHRPPRLPRPRPRPAVFPRP | -0.0167
104 | RRIRHRPPRLPRPRPRPAWGPRP | 0.542
105 | RRIRHRPPRLPRPRPRPAWLPRP | 0.163
106 | RRIRHRPPRLPRPRPRPAWMPRP | 0.574
107 | RRIRHRPPRLPRPRPRPAYDPRP | -0.265
108 | RRIRHRPPRLPRPRPRPCAEPRP | -0.228
109 | RRIRHRPPRLPRPRPRPCAHPRP | 0.0671
